Reference: patent US20210380660A1 (OREGON HEALTH AND SCIENCE UNIVERSITY, published 2021)

T1: recombinant human CD74 (C27S) (human, UniProt P04233 1-216)
T1 chain: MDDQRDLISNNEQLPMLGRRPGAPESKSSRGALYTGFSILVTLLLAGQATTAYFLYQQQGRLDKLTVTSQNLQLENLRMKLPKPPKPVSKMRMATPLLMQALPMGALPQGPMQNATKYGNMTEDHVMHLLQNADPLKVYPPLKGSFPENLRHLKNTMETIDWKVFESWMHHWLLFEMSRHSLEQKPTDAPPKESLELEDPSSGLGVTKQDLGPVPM

T2: mouse CD74 (mouse, UniProt P04441-2 1-215, limits assumed)
T2 construct: Native protein pulled down from splenocyte lysate; also called mCD74; immunoprecipitated mouse CD74
T2 sequence (looked up): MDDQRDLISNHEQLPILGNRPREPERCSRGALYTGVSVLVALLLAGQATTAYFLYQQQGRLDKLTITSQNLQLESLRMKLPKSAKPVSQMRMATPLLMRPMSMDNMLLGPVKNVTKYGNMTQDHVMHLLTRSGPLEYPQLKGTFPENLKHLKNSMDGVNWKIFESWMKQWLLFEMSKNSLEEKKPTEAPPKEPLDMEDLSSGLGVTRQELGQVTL


Legend:
[1] = biological target: T1, recombinant human CD74 (C27S); experiment: competition ELISA against MIF for rhCD74
[2] = biological target: T1, recombinant human CD74 (C27S); experiment: direct binding ELISA on rhCD74 (legend of FIG. 6A)
[3] = biological target: T1, recombinant human CD74 (C27S); experiment: competition ELISA: MIF coated, rhCD74 with serially diluted construct, bound rhCD74 detected
[4] = biological target: T1, recombinant human CD74 (C27S); experiment: direct binding ELISA, rhCD74 (C27S) coated, construct detected with anti-MOG antibody, one-site fit
mouse CD74 = biological target: T2, mouse CD74; experiment: competition with FITC-labelled P2 peptide on immunoprecipitated mouse CD74, gel densitometry, one-site fit
Procedure: For competition experiments, ELISA plates were coated with MIF at room temperature at a concentration of 0.5 μg/ml in TBS. Plates were then blocked overnight with 5% BSA in TBS and 0.0125% T20 followed by the addition of a competitive mix containing rhCD74 with serially diluted DRα1 constructs prepared in 5% BSA/TBS plus 0.0125% T20 for 1.5 hours at 25° C. Bound rhCD74 was detected with a monoclonal antibody that specifically recognizes human CD74 in a region away from the putative MIF/D-DT binding site. Absorbance at 450 nm was determined and data were analyzed with Prism, the parameters were calculated with the competition equation included in the software. For competition between DRα1-hMOG-35-55 and P2 peptide (see next section), mouse CD74 was immunoprecipitated from DR*1501 Tg mouse splenocytes and a competition experiment was set. 2.5 μl of P2 peptide were used with increasing concentrations of DRα1-hMOG-35-55 protein. Bound peptide was eluted from the immunoprecipitation with 2% SDS and analyzed in a 16.5% PAG Tris/Tricine. The gel was scanned for FITC and fluorescence was quantified by densitometry. P2 fluorescence vs. DRα1 competitor was plotted and data analyzed with Prism. The relative density values were fit to a One-binding site equation. […]

Row | Binder | IC50 [1] | Kd [2] | IC50 [3] | Kd [4] | Kd (mouse CD74)
1 | DRhQ (other, Made in E. coli; also called DRα1-hMOG-35-55 with glutamine substitution; L50Q) MEVGWYRPPFSRVVHLYRNGKGGGGSLVPRGSGGGGIKEEHVIIQAEFYQNPDQSGEFMFDFDGDEIFHVDMAKKETVWRLEEFGRFASFEAQGALANIAVDKANLEIMTKRSNYTPITN | 280 nM | 89 nM | 298 nM | 91.1 nM | 
2 | DRα1-hMOG-35-55 (other, also called DRα1-human(h)MOG-35-55; DRα1 with human MOG-35-55 peptide) MEVGWYRPPFSRVVHLYRNGKGGGGSLVPRGSGGGGIKEEHVIIQAEFYLNPDQSGEFMFDFDGDEIFHVDMAKKETVWRLEEFGRFASFEAQGALANIAVDKANLEIMTKRSNYTPITN | 1600 nM | 650 nM | 1640 nM | 702 nM | 750 nM

Further binders by falling IC50 [3], results first:

Row | IC50 [1] | Kd [2] | IC50 [3] | Kd [4] | Kd (mouse CD74) | Binder
3 |  |  | 937 nM |  |  | DRα1-mMOG-35-55 (other, also called DRα1 with mouse MOG-35-55 peptide) MEVGWYRSPFSRVVHLYRNGKGGGGSLVPRGSGGGGIKEEHVIIQAEFYLNPDQSGEFMFDFDGDEIFHVDMAKKETVWRLEEFGRFASFEAQGALANIAVDKANLEIMTKRSNYTPITN
4 |  |  | 828 nM |  |  | DRmQ (other, also called DRα1-mMOG-35-55 with glutamine substitution) MEVGWYRSPFSRVVHLYRNGKGGGGSLVPRGSGGGGIKEEHVIIQAEFYQNPDQSGEFMFDFDGDEIFHVDMAKKETVWRLEEFGRFASFEAQGALANIAVDKANLEIMTKRSNYTPITN
